Read-outs that look alike come from different tables or passages of the source.
What was measured:
PDGF-BB [1] = target: T1, PDGF-BB (Homo sapiens, UniProt P01127 P01127:82-190)
PDGF-AB [2] = target: T2, PDGF-AB (Homo sapiens, UniProt P04085;P01127 P04085:87-211,P01127:82-190)
PDGF-BB [3] = target: T1, PDGF-BB; assay: p237 labels ARC125 as SEQ 16, Table 3 as SEQ 17; details: chain copies: 2 (inferred)
PDGF-AB [4] = target: T2, PDGF-AB; assay: p237 labels ARC125 as SEQ 16, Table 3 as SEQ 17
TGF-beta2 = target: T3, TGF-beta2 (Rattus, UniProt Q07257 Q07257:331-442); assay: filter; values in figure only; details: chain copies: 2 (inferred)
T3 sequence: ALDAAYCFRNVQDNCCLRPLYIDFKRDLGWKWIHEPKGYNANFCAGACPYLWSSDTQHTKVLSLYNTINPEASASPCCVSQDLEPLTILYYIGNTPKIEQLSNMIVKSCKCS
Description: Dissociation constants for the binding of aptamers to purified human or rodent TGFβ-2 protein were determined by nitrocellulose-filter partitioning using ³²P-labeled RNA. In vitro transcribed RNA was treated with calf-intestinal alkaline phophatase (New England Biolabs) to remove 5′-triphosphates, then radio-labeled by incubation with γ-³²P-ATP and T4 polynucleotide kinase (New England Biolabs). Unincorporated label was removed by gel-filtration, and the RNAs were further purified by polyacrylamide gel electrophoresis (PAGE). Purified ³²P-labeled aptamer in water was refolded just prior to use by heating for 3 min at 95° C., followed by a 10 minute room-temperature incubation in binding buffer (50 mM Hepes, pH 7.4, 1 mM MgCl₂, 1 mM CaCl₂, 3 mM KCl, 140 mM NaCl, 0.1 mg/ml BSA, 0.01 mg/ml tRNA). The binding reactions (100 μL) were initiated by the addition of aptamer (≦0.1 nM) to excess TGFβ-2 protein (0.2-100 nM), followed by 10-30 minute equilibration at room temperature.
Nitrocellulose-filter partitioning was performed on Minifold® I, 96-well Dot-Blot manifolds (Schleicher & Schuell). Protein-bound aptamer and residual free aptamer were captured, respectively, on pre-wetted Protran nitrocellulose (Schleicher & Schuell) and Hybond-P polyvinylidene difluoride (Amersham Biosciences) filters by vacuum aspiration, and quantified by PhosphorImager (Amersham Biosciences). […]

T1 sequence (P01127 82-190, one chain of several): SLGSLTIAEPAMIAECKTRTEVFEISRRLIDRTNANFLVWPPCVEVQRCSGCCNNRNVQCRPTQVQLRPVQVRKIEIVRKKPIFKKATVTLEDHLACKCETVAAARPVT
T2 sequence (P01127 82-190, chain 2 of 2, other chains not shown): as the sequence (P01127 82-190, one chain of several) above

**Q.** With TGGGAGGGCGCGTTCTTCGTGGTTACTTTTAGTCCCG (ssDNA, 3'-3'-dT cap) [ARC123] as the binder, how does the Kd (PDGF-BB [1]) read?
**A.** Its Kd is 0.1 nM.

**Q.** And the Kd (PDGF-AB [2])?
**A.** The Kd was 0.1 nM.

**Q.** What does the source list for CACAGGCTACGGCACGTAGAGCATCACCATGATCCTGTG (ssDNA, 3'-3'-dT cap) [ARC124]?
**A.** Kd (PDGF-BB [1]): 0.1 nM; Kd (PDGF-AB [2]): 0.1 nM

**Q.** How did the Kd (PDGF-BB [3]) turn out when TACTCAGGGCACTGCAAGCAATTGTGGTCCCAATGGGCTGAGTA (ssDNA, 3'-3'-dT cap) [ARC125] was run?
**A.** The Kd was 0.1 nM.

**Q.** And the Kd (PDGF-AB [4])?
**A.** Its Kd is 0.1 nM.

**Q.** Does GGAGGUUAUUACAGAGUCUGUAUAGCUGUACUCC (ssRNA, 2'-F all C and U, 2'-OH purines, 3'-inverted T (3T)) [ARC77] bind (TGF-beta2)?
**A.** Result: binds
